Measured values reported in article PMC8263569.

Target: P622-G772A/S773A (ADGRG2-P622 with G772 and S773 of the ECL2 changed to alanine) (human) (UniProt Q8IZP9)
Chain of UniProt Q8IZP9 (Q8IZP9 622-1017 G772A/S773A): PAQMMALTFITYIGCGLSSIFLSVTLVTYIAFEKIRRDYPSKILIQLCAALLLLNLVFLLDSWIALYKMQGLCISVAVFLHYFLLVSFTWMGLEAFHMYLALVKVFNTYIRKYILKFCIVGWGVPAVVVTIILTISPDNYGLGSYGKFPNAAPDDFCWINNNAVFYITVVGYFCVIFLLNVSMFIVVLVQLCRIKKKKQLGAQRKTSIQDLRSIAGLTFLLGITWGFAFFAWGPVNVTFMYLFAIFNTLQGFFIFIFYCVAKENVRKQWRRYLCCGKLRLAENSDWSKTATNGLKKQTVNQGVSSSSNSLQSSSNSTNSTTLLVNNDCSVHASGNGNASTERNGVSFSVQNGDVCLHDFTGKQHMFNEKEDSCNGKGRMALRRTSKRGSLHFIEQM

CRE-luciferase reporter response to P-15, reduction against P622-CWI: 30% | SRE-luciferase reporter response to P-15, reduction against P622-CWI: 40%
Substance: synthetic P-15 (15-amino acid long Stachel peptide of ADGRG2)
